Test results reported in the DeepSol protein solubility set.

assay: soluble on expression in E. coli; label from the status in PepcDB or PDB records

| Sequence | soluble on expression in E. coli |
| --- | --- |
| MSLQVLDRVELYLVKTPLPAPHAPSWIPGTIRTHVSMCIVRFITDDGVEGWSGFPAAGRERAGLGDLLAGLFLGQEAGDIDKLSERIQIMAAGGNFNWWLEPAFWDIKAKSAGLPLYKLLGGTDDRIRLYASSGELRDPGARREEAEARLAEGFDTMKIRVHDFDEAVDIDHISDIARHMQGRMRISVDCNQAFRLTQNGDAPLWSLDRAKRFVDAAADVGLAWVEEPLFGEWHEEIARLTTYSRVPVAGGELHVMGYRELARMMKMGCYNIFQPDAMWAGGITQCLKVAALCWQEGIRFTPHCWSNGFGFIANAHVFAASGFAGEELFEYPLSPPGWTPEGRDQIFSEPFLHENGWFAMPQTPGLGFEINQETLEKHGQCFFRASRNSTHWMPEALPAEGHHHHHH | soluble |
| MSWTDERVELLKKMWGEGQSASQIAKELGGVTRNAVIGKVHRLGLSNRSSGAAPASTKAETKEKPAAATPRAEAKPKPAPRPEPLRAAPDPAPAPQPAEIKPIPARKQIIPAGQPLPPQPSANEISPEALAKVNEVEKKAKKLSLMELTERTCKWPVGDPATEDFWFCGLPVQQGKPYCEAHVGVAFQPMSSRRDRRRLEHHHHHH | soluble |
| MNGQAKIAEPRRLYQQIADQIRELIDVGEFLPGTRLPAERELAQKLGVSRPSLREALIALEIDNTVEIRMGSGVYVSTEALQTTHHTKSLGDSPSELMQARAALEGATIVLAANRMTDETIAALRQILNTMQKEIEAGRKPLDQDRLFHVTIAEQSGNSVLARLVANLFDERHSPISAQLRVKFEDRDTWTRALQEHEAILAALELKDPLLAQAAMHIHLEGSKRRWVDS | soluble |
| QTINKIDLQALEESQIDWAKYQPHQAVVLKARKQLRDHQQTALNATAAGLNDAERGKLIMACGTGKTFTSLKIAERLAGKGKRVLFLVPSLSLLSQTLTEWTQESETPLHSFAVCSDSDVGKKRKADEDTVQVFTHELRYPATTKADRLAAEMLKRHDAEHMSVVFSTYHSIDVISRAQHEYDLAAFDLVICDEAHRTTGATFDDDDESTFVRIHDVDYIRAIKRLYMTA | not soluble |
| MGSDKIHHHHHHMKQNLTLILMNEAVREGWREWMEKVRKVLPQTDAERPVTWIAAERLAQENGRMVRLVELLREHRPVLSYRVKEEAGLLILVAYHRHGSSSDFLLETAEAYFRERDCGGFLFLCRMQASINAYDEYPHLNVLCNRLAGLLFRFRRERASEYRKGIPPMFSGADLQEVEKYLPHLRGCSFREEIALALPKVKNVEELARECAMSVNTLGRRFKEELNTTPHRWLTEQRKAHVTSLLADTDMPLQEIADVCGFATPSYLWDFCKKHLKATPAEIREIARCARTV | not soluble |
| MSLDSQVLEHVLPSHFAKYDKGGDEFYDLISAFHKSVRGSAPDAALYWYCRILAGGGDPLYVARRLLAIATEDIGNADPRAMQVALNAWDIFQRVGPSEGERAIAQATLYLASAPKSNAVYTAFNQAKHDAAHLPSYPVPEHLRNAPTQIMKELGFGAQYRYAHDEVGAFAAGENYFPEILKTKHYYQPTDRGLEKQIKDKLDYLASQNNQSENKRYDEGHHHHHH | soluble |
| MSLSDILILTHAEFCPPGHLATVLAQRGLDFRVVRADLGQLAGLDAERPRAVAIMGGPMSVNDDLPWLGDELALLRRFIERRIPLLGHCLGGQLLARVLGATVRQQPYTEMGWQPMQRESRDSPWLAHLPERFAIFQWHGDAFDLPQGAERLLSSAWCENQAFSWGGHVLGLQGHPEMTEELVRRWIDGWPQLLDSSQPSQQSREAMLADLPLKVAALNRVAEGFYRHWLSLLREGHHHHHH | not soluble |
| MYALAFDLKIEILKKEYGEPYNKAYDDLRQELELLGFEWTQGSVYVNYSKENTLAQVYKAINKLSQIEWFKKSVRDIRAFKVEDFSDFTEIVKS | not soluble |
| IDKAIRDGNVLGFRTEYYKTLSEKDDIDDETSSTGIDKKEALENPIRISEIVDFILKNYNRLTKRNEEFFEHNKIANINEVITSRNKLSENKVLTTLNGFNSILACSSINAAKIYYSEFKKQQQKFPQEEKLKIGLIYSYLPSEQ | not soluble |
